Measured values reported in article PMC9884259 (The Journal of Membrane Biology, 2022).
Residue numbers refer to the chain shown, from its start.

B1: Streptolysin O (SLO), wildtype, residues L78-K571, His-tagged (natural protein)
chain: LAPKEMPLESAEKEEKKSEDKKKSEEDHTEEINDKIYSLNYNELEVLAKNGETIENFVPKEGVKKADKFIVIERKKKNINTTPVDISIIDSVTDRTYPAALQLANKGFTENKPDAVVTKRNPQKIHIDLPGMGDKATVEVNDPTYANVSTAIDNLVNQWHDNYSGGNTLPARTQYTESMVYSKSQIEAALNVNSKILDGTLGIDFKSISKGEKKVMIAAYKQIFYTVSANLPNNPADVFDKSVTFKELQRKGVSNEAPPLFVSNVAYGRTVFVKLETSSKSNDVEAAFSAALKGTDVKTNGKYSDILENSSFTAVVLGGDAAEHNKVVTKDFDVIRNVIKDNATFSRKNPAYPISYTSVFLKNNKIAGVNNRTEYVETTSTEYTSGKINLSHQGAYVAQYEILWDEINYDDKGKEVITKRRWDNNWYSKTSPFSTVIPLGANSRNIRIMARECTGLAWEWWRKVIDERDVKLSKEINVNISGSTLSPYGSITYK
B2: SLO (C/A)-SS mutant ([change], [change], [change]), residues L78-K571, His-tagged (natural protein)
chain: B1 chain with G51C, S184C, C453A

Tests used:
high-speed AFM = biological target: the molecule itself; assay: high-speed AFM
[1] = biological target: B1; assay: high-speed AFM; settings: both partners purified

Row | Binder | binding result (high-speed AFM) | binding result [1]
1 | B1 | binds | 
2 | B2 | binds | binds
